Test results reported in patent US20130005646A1 (Novo Nordisk, published 2013).
Starred links: 1 amine or outer side, 2 acyl side, 3 side chain; linkers in the order of their positions; H or OH if unused. Positions of bridges follow the written chain, without caps; N, C: chain ends. *: point of attachment. C20 diacid = O=C(O)CCCCCCCCCCCCCCCCCCC(=O)*; 19‑carboxyheptadecanoyl = not defined here; γGlu = O=C(O)[C@H](CCC(=O)[*:2])N[*:1]; AEEA = NCCOCCOCC(=O)O

T1: human amylin 3(a) receptor (human calcitonin receptor + RAMP-3) (human, UniProt P30988 25-474; O60896 24-148)
T1 sequence (looked up) 1: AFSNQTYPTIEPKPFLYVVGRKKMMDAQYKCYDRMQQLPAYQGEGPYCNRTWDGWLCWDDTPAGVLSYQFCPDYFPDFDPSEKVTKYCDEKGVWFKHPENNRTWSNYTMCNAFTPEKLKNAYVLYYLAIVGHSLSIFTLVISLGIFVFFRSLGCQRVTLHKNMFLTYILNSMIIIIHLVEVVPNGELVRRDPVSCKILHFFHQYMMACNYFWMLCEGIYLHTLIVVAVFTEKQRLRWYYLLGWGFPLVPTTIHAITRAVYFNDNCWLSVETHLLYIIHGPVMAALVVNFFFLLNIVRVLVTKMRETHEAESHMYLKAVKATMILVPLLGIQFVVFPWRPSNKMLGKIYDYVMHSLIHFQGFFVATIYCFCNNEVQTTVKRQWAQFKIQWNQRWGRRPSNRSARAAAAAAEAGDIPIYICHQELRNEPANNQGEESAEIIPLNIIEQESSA
T1 sequence (looked up) 2: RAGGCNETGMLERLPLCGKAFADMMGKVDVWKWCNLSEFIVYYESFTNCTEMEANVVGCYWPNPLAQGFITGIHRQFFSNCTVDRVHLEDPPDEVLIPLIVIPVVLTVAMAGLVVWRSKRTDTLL

T2: human calcitonin (a) receptor (human, UniProt P30988 25-474)
T2 sequence (looked up): T1 sequence (looked up) 1

B1: N-alpha-[(S)-4-Carboxy-4-(19-carboxynonadecanoylamino)butyryl]-Glu-Arg-[Glu1,Glu14,Arg17,Gln21,Gln31,Gln35,Pro37]-pramlintide (peptide)
peptide: {C20 diacid-γGlu}-ERECNTATCATQRLAEFLRHSSQNFGPILPPTQVGSQTP-NH2
modifications: disulfide 4-9
SMILES: CC[C@H](C)[C@H](NC(=O)[C@@H]1CCCN1C(=O)CNC(=O)[C@H](Cc1ccccc1)NC(=O)[C@H](CC(N)=O)NC(=O)[C@H](CCC(N)=O)NC(=O)[C@H](CO)NC(=O)[C@H](CO)NC(=O)[C@H](Cc1c[nH]cn1)NC(=O)[C@H](CCCNC(=N)N)NC(=O)[C@H](CC(C)C)NC(=O)[C@H](Cc1ccccc1)NC(=O)[C@H](CCC(=O)O)NC(=O)[C@H](C)NC(=O)[C@H](CC(C)C)NC(=O)[C@H](CCCNC(=N)N)NC(=O)[C@H](CCC(N)=O)NC(=O)[C@@H](NC(=O)[C@H](C)NC(=O)[C@@H]1CSSC[C@H](NC(=O)[C@H](CCC(=O)O)NC(=O)[C@H](CCCNC(=N)N)NC(=O)[C@H](CCC(=O)O)NC(=O)CC[C@H](NC(=O)CCCCCCCCCCCCCCCCCCC(=O)O)C(=O)O)C(=O)N[C@@H](CC(N)=O)C(=O)N[C@@H]([C@@H](C)O)C(=O)N[C@@H](C)C(=O)N[C@@H]([C@@H](C)O)C(=O)N1)[C@@H](C)O)C(=O)N[C@@H](CC(C)C)C(=O)N1CCC[C@H]1C(=O)N1CCC[C@H]1C(=O)N[C@H](C(=O)N[C@@H](CCC(N)=O)C(=O)N[C@H](C(=O)NCC(=O)N[C@@H](CO)C(=O)N[C@@H](CCC(N)=O)C(=O)N[C@H](C(=O)N1CCC[C@H]1C(N)=O)[C@@H](C)O)C(C)C)[C@@H](C)O
B2: N-alpha-[(S)-4-Carboxy-4-(19-carboxynonadecanoylamino)butyryl]-[Glu14,Arg18,Ser21,Ser22,Ser28,Ser29,Asp31,Asp35,Pro37]-pramlintide (peptide)
peptide: {C20 diacid-γGlu}-KCNTATCATQRLAEFLVRSSSSFGPILSSTDVGSDTP-NH2
modifications: disulfide 2-7
SMILES: CC[C@H](C)[C@H](NC(=O)[C@@H]1CCCN1C(=O)CNC(=O)[C@H](Cc1ccccc1)NC(=O)[C@H](CO)NC(=O)[C@H](CO)NC(=O)[C@H](CO)NC(=O)[C@H](CO)NC(=O)[C@H](CCCNC(=N)N)NC(=O)[C@@H](NC(=O)[C@H](CC(C)C)NC(=O)[C@H](Cc1ccccc1)NC(=O)[C@H](CCC(=O)O)NC(=O)[C@H](C)NC(=O)[C@H](CC(C)C)NC(=O)[C@H](CCCNC(=N)N)NC(=O)[C@H](CCC(N)=O)NC(=O)[C@@H](NC(=O)[C@H](C)NC(=O)[C@@H]1CSSC[C@H](NC(=O)[C@H](CCCCN)NC(=O)CC[C@H](NC(=O)CCCCCCCCCCCCCCCCCCC(=O)O)C(=O)O)C(=O)N[C@@H](CC(N)=O)C(=O)N[C@@H]([C@@H](C)O)C(=O)N[C@@H](C)C(=O)N[C@@H]([C@@H](C)O)C(=O)N1)[C@@H](C)O)C(C)C)C(=O)N[C@@H](CC(C)C)C(=O)N[C@@H](CO)C(=O)N[C@@H](CO)C(=O)N[C@H](C(=O)N[C@@H](CC(=O)O)C(=O)N[C@H](C(=O)NCC(=O)N[C@@H](CO)C(=O)N[C@@H](CC(=O)O)C(=O)N[C@H](C(=O)N1CCC[C@H]1C(N)=O)[C@@H](C)O)C(C)C)[C@@H](C)O
B3: N-alpha-[(S)-4-Carboxy-4-(19-carboxynonadecanoylamino)butyryl]-Glu-Arg-[Glu1,Glu14,Arg17,Gln21,Gln35,Pro37]-pramlintide (peptide)
peptide: {C20 diacid-γGlu}-ERECNTATCATQRLAEFLRHSSQNFGPILPPTNVGSQTP-NH2
modifications: disulfide 4-9
SMILES: CC[C@H](C)[C@H](NC(=O)[C@@H]1CCCN1C(=O)CNC(=O)[C@H](Cc1ccccc1)NC(=O)[C@H](CC(N)=O)NC(=O)[C@H](CCC(N)=O)NC(=O)[C@H](CO)NC(=O)[C@H](CO)NC(=O)[C@H](Cc1c[nH]cn1)NC(=O)[C@H](CCCNC(=N)N)NC(=O)[C@H](CC(C)C)NC(=O)[C@H](Cc1ccccc1)NC(=O)[C@H](CCC(=O)O)NC(=O)[C@H](C)NC(=O)[C@H](CC(C)C)NC(=O)[C@H](CCCNC(=N)N)NC(=O)[C@H](CCC(N)=O)NC(=O)[C@@H](NC(=O)[C@H](C)NC(=O)[C@@H]1CSSC[C@H](NC(=O)[C@H](CCC(=O)O)NC(=O)[C@H](CCCNC(=N)N)NC(=O)[C@H](CCC(=O)O)NC(=O)CC[C@H](NC(=O)CCCCCCCCCCCCCCCCCCC(=O)O)C(=O)O)C(=O)N[C@@H](CC(N)=O)C(=O)N[C@@H]([C@@H](C)O)C(=O)N[C@@H](C)C(=O)N[C@@H]([C@@H](C)O)C(=O)N1)[C@@H](C)O)C(=O)N[C@@H](CC(C)C)C(=O)N1CCC[C@H]1C(=O)N1CCC[C@H]1C(=O)N[C@H](C(=O)N[C@@H](CC(N)=O)C(=O)N[C@H](C(=O)NCC(=O)N[C@@H](CO)C(=O)N[C@@H](CCC(N)=O)C(=O)N[C@H](C(=O)N1CCC[C@H]1C(N)=O)[C@@H](C)O)C(C)C)[C@@H](C)O
B4: N-alpha-[(S)-4-Carboxy-4-(19-carboxynonadecanoylamino)butyryl]-[Glu14,Arg18,Gln21,Ala25,Pro26,Ser28,Ser29,Pro37]-pramlintide (peptide)
peptide: {C20 diacid-γGlu}-KCNTATCATQRLAEFLVRSSQNFGAPLSSTNVGSNTP-NH2
modifications: disulfide 2-7
SMILES: CC(C)C[C@H](NC(=O)[C@H](CCCNC(=N)N)NC(=O)[C@H](CCC(N)=O)NC(=O)[C@@H](NC(=O)[C@H](C)NC(=O)[C@@H]1CSSC[C@H](NC(=O)[C@H](CCCCN)NC(=O)CC[C@H](NC(=O)CCCCCCCCCCCCCCCCCCC(=O)O)C(=O)O)C(=O)N[C@@H](CC(N)=O)C(=O)N[C@@H]([C@@H](C)O)C(=O)N[C@@H](C)C(=O)N[C@@H]([C@@H](C)O)C(=O)N1)[C@@H](C)O)C(=O)N[C@@H](C)C(=O)N[C@@H](CCC(=O)O)C(=O)N[C@@H](Cc1ccccc1)C(=O)N[C@@H](CC(C)C)C(=O)N[C@H](C(=O)N[C@@H](CCCNC(=N)N)C(=O)N[C@@H](CO)C(=O)N[C@@H](CO)C(=O)N[C@@H](CCC(N)=O)C(=O)N[C@@H](CC(N)=O)C(=O)N[C@@H](Cc1ccccc1)C(=O)NCC(=O)N[C@@H](C)C(=O)N1CCC[C@H]1C(=O)N[C@@H](CC(C)C)C(=O)N[C@@H](CO)C(=O)N[C@@H](CO)C(=O)N[C@H](C(=O)N[C@@H](CC(N)=O)C(=O)N[C@H](C(=O)NCC(=O)N[C@@H](CO)C(=O)N[C@@H](CC(N)=O)C(=O)N[C@H](C(=O)N1CCC[C@H]1C(N)=O)[C@@H](C)O)C(C)C)[C@@H](C)O)C(C)C
B5: N-alpha-[2-(2-{2-[2-(2-{2-[(S)-4-Carboxy-4-(19-carboxyheptadecanoylamino)butyrylamino]ethoxy}ethoxy)acetylamino]ethoxy}ethoxy)acetyl]-[Glu14,His17,Glu21,Pro37]- … (peptide)
peptide: {19‑carboxyheptadecanoyl-γGlu-AEEA-AEEA}-KCNTATCATQRLAEFLHHSSENFGPILPPTNVGSNTP-NH2
modifications: disulfide 2-7; reading uncertain; also: printed as N-alpha-[2-(2-{2-[2-(2-{2-[(S)-4-Carboxy-4-(19-carboxyheptadecanoylamino)butyrylamino]ethoxy}ethoxy)acetylamino]ethoxy}ethoxy)acetyl]-[Glu14,His17,Glu21,Pro37]-pramlintide
B6: N-alpha-[2-(2-{2-[2-(2-{2-[(S)-4-Carboxy-4-(19-carboxyheptadecanoylamino)butyrylamino]ethoxy}ethoxy)acetylamino]ethoxy}ethoxy)acetyl]-[Glu14,His17,Lys21,Pro37]- … (peptide)
peptide: {19‑carboxyheptadecanoyl-γGlu-AEEA-AEEA}-KCNTATCATQRLAEFLHHSSKNFGPILPPTNVGSNTP-NH2
modifications: disulfide 2-7; reading uncertain; also: printed as N-alpha-[2-(2-{2-[2-(2-{2-[(S)-4-Carboxy-4-(19-carboxyheptadecanoylamino)butyrylamino]ethoxy}ethoxy)acetylamino]ethoxy}ethoxy)acetyl]-[Glu14,His17,Lys21,Pro37]-pramlintide
B7: N-alpha-[(S)-4-Carboxy-4-(19-carboxynonadecanoylamino)butyryl]-Glu-Arg-[Glu1,Glu14,Arg17,Gln21,Gln22,Gln31,Gln35,Pro37]-pramlintide (peptide)
peptide: {C20 diacid-γGlu}-ERECNTATCATQRLAEFLRHSSQQFGPILPPTQVGSQTP-NH2
modifications: disulfide 4-9
SMILES: CC[C@H](C)[C@H](NC(=O)[C@@H]1CCCN1C(=O)CNC(=O)[C@H](Cc1ccccc1)NC(=O)[C@H](CCC(N)=O)NC(=O)[C@H](CCC(N)=O)NC(=O)[C@H](CO)NC(=O)[C@H](CO)NC(=O)[C@H](Cc1c[nH]cn1)NC(=O)[C@H](CCCNC(=N)N)NC(=O)[C@H](CC(C)C)NC(=O)[C@H](Cc1ccccc1)NC(=O)[C@H](CCC(=O)O)NC(=O)[C@H](C)NC(=O)[C@H](CC(C)C)NC(=O)[C@H](CCCNC(=N)N)NC(=O)[C@H](CCC(N)=O)NC(=O)[C@@H](NC(=O)[C@H](C)NC(=O)[C@@H]1CSSC[C@H](NC(=O)[C@H](CCC(=O)O)NC(=O)[C@H](CCCNC(=N)N)NC(=O)[C@H](CCC(=O)O)NC(=O)CC[C@H](NC(=O)CCCCCCCCCCCCCCCCCCC(=O)O)C(=O)O)C(=O)N[C@@H](CC(N)=O)C(=O)N[C@@H]([C@@H](C)O)C(=O)N[C@@H](C)C(=O)N[C@@H]([C@@H](C)O)C(=O)N1)[C@@H](C)O)C(=O)N[C@@H](CC(C)C)C(=O)N1CCC[C@H]1C(=O)N1CCC[C@H]1C(=O)N[C@H](C(=O)N[C@@H](CCC(N)=O)C(=O)N[C@H](C(=O)NCC(=O)N[C@@H](CO)C(=O)N[C@@H](CCC(N)=O)C(=O)N[C@H](C(=O)N1CCC[C@H]1C(N)=O)[C@@H](C)O)C(C)C)[C@@H](C)O

The binders below were run against T1, human amylin 3(a) receptor (human …) (assay: cell-based or functional assay).

Row | Amylin receptor human EC50 | Binder
1 | 1.06 nM | B1
2 | 0.09 nM | B2
3 | 0.411 nM | B3
4 | 0.039 nM | B4
5 | 0.203 nM | B5
6 | 0.071 nM | B6
7 | 1.71 nM | B7

What follows are binders tested against T2, human calcitonin (a) receptor (assay: cell-based or functional assay).

Row | CTa receptor human EC50 | Binder
8 | 3.71 nM | B1
9 | 0.076 nM | B2
10 | 2.19 nM | B3
11 | 0.034 nM | B4
12 | 0.113 nM | B5
13 | 0.085 nM | B6
14 | 3.57 nM | B7
